Measurements taken from patent US20250197451A1, “USE OF BIOACTIVE POLYPEPTIDE SYNTHESIZED ON BASIS OF KDM2B SEQUENCE IN NEURAL DIFFERENTIATION AND REGENERATION AND REPAIR OF MESENCHYMAL STEM CELLS” (CAPITAL MEDICAL UNIVERSITY SCHOOL OF STOMATOLOGY, priority 2021, published 2025).

Molecular target: biotin-labelled EZH2 protein (UniProt Q15910)
Test: KDM2B peptide array probed with biotin-EZH2 1 ug/ml, SA-HRP/ECL

biotin-labelled EZH2 protein, sequence (Q15910 whole entry): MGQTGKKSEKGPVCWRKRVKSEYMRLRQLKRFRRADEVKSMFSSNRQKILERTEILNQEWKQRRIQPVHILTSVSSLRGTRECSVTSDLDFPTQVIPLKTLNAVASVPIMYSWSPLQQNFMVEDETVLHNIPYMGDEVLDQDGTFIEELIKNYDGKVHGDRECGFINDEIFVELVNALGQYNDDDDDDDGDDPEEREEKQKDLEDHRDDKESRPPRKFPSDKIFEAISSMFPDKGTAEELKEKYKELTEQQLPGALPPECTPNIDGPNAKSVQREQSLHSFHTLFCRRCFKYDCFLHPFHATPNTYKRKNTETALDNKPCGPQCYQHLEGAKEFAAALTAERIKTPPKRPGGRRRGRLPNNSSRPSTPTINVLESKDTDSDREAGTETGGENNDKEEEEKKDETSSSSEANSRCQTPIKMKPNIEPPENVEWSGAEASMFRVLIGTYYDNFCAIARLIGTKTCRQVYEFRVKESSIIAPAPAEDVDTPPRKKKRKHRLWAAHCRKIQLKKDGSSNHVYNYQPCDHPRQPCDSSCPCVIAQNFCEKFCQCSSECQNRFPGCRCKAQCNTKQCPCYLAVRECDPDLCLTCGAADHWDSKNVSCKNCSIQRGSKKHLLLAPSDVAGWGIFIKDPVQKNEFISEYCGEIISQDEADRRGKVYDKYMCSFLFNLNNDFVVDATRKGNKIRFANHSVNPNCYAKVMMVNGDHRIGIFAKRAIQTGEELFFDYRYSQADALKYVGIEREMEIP

| Binder | Intensity (%) |
| --- | --- |
| QPKFRYPFYYEMCWY [peptide 71] | 0.57 |
| LAVDYPKTPTGSPAT [peptide 98] | 0.77 |
| CIMRQCIAPVLPHTA [peptide 130] | 30.8 |

More lines, now with the values ahead:

| Intensity (%) | Binder |
| --- | --- |
| 0.15 | IYEIEDRTRVQPKFR [peptide 69] |
| 0.25 | VLERYVYCVTQRSHL [peptide 74] |
